According to article PMC2813275:

Molecular target: GST-Nup153 (human wt Nup153) (human)
Assay: co-IP; competition: 200 ng P-rC with 200 ng GST-Nup153 and different concentrations of importin β together, 2 h at 37°C in transport buffer; anti-capsid beads; mAb414 blot

“importin β (karyopherin) (from UniProt Q14974 1-876) (natural protein)” was tested, and the molar excess of importin β that prevented Nup153 binding to P-rC was > 150 fold.
